The results in this text go back to paper PMC9361823.

Assay [1] deals with CumDO-O β1R65A (Pseudomonas fluorescens IP01) (UniProt Q51743).
Assay [2] has as its target CumDO-O α1K117A (Pseudomonas fluorescens IP01) (UniProt Q51743).
Assay [3] has as its target CumDO-O α1K117A β2W100A (Pseudomonas fluorescens IP01) (UniProt Q51743).
The target of assay [4] is CumDO-O α1K141A β2W100A (Pseudomonas fluorescens IP01) (UniProt Q51743).
Assay [5] addresses CumDO-O α1K117A α1K141A (Pseudomonas fluorescens IP01) (UniProt Q51743).
The target of assay [6] is CumDO-O α1K117A β1R65A (Pseudomonas fluorescens IP01) (UniProt Q51743).
Assay [7] deals with CumDO-O β1R65A β2W100A (Pseudomonas fluorescens IP01) (UniProt Q51743).
Assay [8] addresses CumDO-O α1K141A β1R65A (Pseudomonas fluorescens IP01) (UniProt Q51743).
The target of assay [9] is α3β3-type oxygenase component of cumene dioxygenase (CumDO-O), wild type (Pseudomonas fluorescens IP01) (UniProt Q51743).

Rieske-type ferredoxin of cumene dioxygenase (CumDO-F), sequence (Q51746 entry or part of it): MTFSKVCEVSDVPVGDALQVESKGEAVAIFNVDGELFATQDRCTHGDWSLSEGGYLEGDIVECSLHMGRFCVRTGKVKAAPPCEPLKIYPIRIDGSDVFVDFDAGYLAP

With “Rieske-type ferredoxin of cumene dioxygenase (CumDO-F) (from UniProt Q51746 1-109) (natural protein)”, the reduction efficiency by CumDO-F relative to WT CumDO-O (A457) was 46% in [1]; 21% in assay [2]; under 20% in assay [3]; 69% in [4]; under 20% in [5]; under 20% in [6]. Moreover, the reduction efficiency by CumDO-F relative to WT CumDO-O (A457) in [7] and in assay [8] was under 20% in each case. Moreover, the reduction efficiency of the Rieske cluster of CumDO-O by CumDO-F (initial rate of decrease of A457; purified CumDO-R, CumDO-F, CumDO-O and NADH) in assay [9] amounted to 100%.
